{
  "source": "paper PMC10602907",
  "molecular_target": "FgSreA, 6xHis-tagged recombinant protein (Fusarium graminearum PH-1)",
  "experiment": "MST",
  "settings": "natural protein",
  "data": [
    {"substance": "FgGrx4, 6xHis-tagged recombinant protein", "values": [
      {"measurement": "EC50", "result": 17.7, "unit": "µM"},
      {"measurement": "Kd", "result": 0.0001, "unit": "µM"}
    ]}
  ]
}
